Assay: label from the status in PepcDB records

Row | Sequence | protein production
1 | MKNIVVIGAGNIGSAIAWMLAATGDYRITVADRSADQLANVPAHERVDTEIVDIADRPALEALLKGKFAVLSAAPFHLTAGIAEAAVAVGTHYLDLTEDVESTRKVKALAETAESALIPQCGLAPGFISIVAADLAARFDKLDSVRMRVGALPQYPSNALNYNLTWSTDGLINEYIEPCEAIVEGRLTAVPALEEREEFSLDGVTYEAFNTSGGLGTLCATLEGKVRTMNYRTIRYPGHVAIMKALLNDLNLRNRRDVLKDLFENALPGTMQDVVIVFVTVCGTRNGRFLQETYANKVYAGPVSGRMMSAIQITTAAGICTVLDLLAEGSLPQKGFVRQEEVALPKFLENRFGRYYGAHEPLARVG | failed
2 | MKFLGRGRELARFKEELDAARPSLVILYGRRRVGKSRFLRELGKSRKEIYFQATRVSSLLNLEQFKIEVANILGALPVLESLPSWEGVFYYIAEHTRNNPGLLITIDEFPYLLDGDPALPSILQKFWDSGAPADGGLKLILCGSSISQMQDLLAERNPLYGRQTLSLDMKQLPLTDVARFFPKYDAEAIISTYAIFGGIPHYLQLFNPDVPLKDNVVRLLLTETGTLVDEPNTLLQTELHEPGFYSSVLAAIADGCNTTSEIASRLGVKVEKITSYAAKLVALHLISNTKSLDVDEKVRNRRFRLDDSLISFWHRFVRPSLTAISGGFGEEVYRQVVAPGFSEYMGIAFEAIALEYARIHIQEKLGLPAKELGQIWGHSDFDIDVAGRLLNGEYFYGDCKWTNADIDMGHLRQLRERSERTRYGRGTAGKHFLLFSKAGFSTDLIVFAKDETRRVHLLTPNDLVRPNQ | failed
3 | MDRIVEIEKYSFDETYETSLRPSNFDGYIGQESIKKNLNVFIAAAKKRNECLDHILFSGPAGLGKTTLANIISYEMSANIKTTAAPMIEKSGDLAAILTNLSEGDILFIDEIHRLSPAIEEVLYPAMEDYRLDIIIGSGPAAQTIKIDLPKFTLIGATTRAGMLSNPLRDRFGMQFRLEFYKDSELALILQKAALKLNKTCEEKAALEIAKRSRSTPRIALRLLKRVRDFADVNDEEIITEKRANEALNSLGVNELGFDAMDLRYLELLTAAKQKPIGLASIAAALSEDENTIEDVIEPYLLANGYIERTAKGRIASAKSYSALKLNYEKTLFEE | not failed
4 | ALYNVDAGHRAVIFDRFRGVQDIVVGEGTHFLIPWVQKPIIFDCRSRPRNVPVITGSKDLQNVNITLRILFRPVASQLPRIFTSI | failed
5 | MFENFSPSTMLAIKKYAYWLWLLLALSMPFNYWMAQDSAHPAFWAFSLVIAVFGIGPLLDMLFGRDPANPDEETQTPQLLGQGYYVLLTLATVPVLIGTLVWAAGVFVAFQEWGWLGRLGWILSMGTVMGAVGIVVAHELIHKDSALEQAAGGILLAAVCYAGFKVEHVRGHHVHVSTPEDASSARFGQSVYQFLPHAYKYNFLNAWRLEAVRLRKKGLPVFGWQNELIWWYLLSLALLVGFGWAFGWLGMVFFLGQAFVAVTLLEIINYVEHYGLHRRKGEDGRYERTNHTHSWNSNFVFTNLVLFHLQRHSDHHAFAKRPYQVLRHYDDSPQMPSGYAGMVVLALIPPLWRAVMDPKVRAYYAGEEFQLTAEQSERPAAS | failed
6 | MAIRLTHLRKPLAYSRSFDVCIPFFRSISSFEAVEKAIKCAVETKEYLRIPELVVSLKEPYQNSTLFSFLSAFQRHHRIRVIDEILQSFVPVRPRSLPKIVYSSLLTYCLQSSDPLPLSFAILQRTLRSGCLPNPQTHLLLSDAWLERRRGSQSVADIINEMKLIGYSPDTGTCNYLVSSLCAVDKLDEAIKVVEEMSAAGCIPDVESYGAVINSLCLARKTTDVVKIVKEMVSKAGISPRKGMLTKVAAALRANREIWKAIEMIEFVESRDYPVEFESYEVVVEGCLEVREYILAGKVVMRMTDRGFIPYIKVRQKVVERLINIGEWKLACTVRQRVSELRS | failed
7 | MNMKATALTATTVAIASLLPSMGETNVQTANAEQLSNVKTGYVKVDQVALHTKDNANSSSIDTIRFNTKVNILETTNGWYKVSVNNKVGYVQKDSILLKNKLQSNNQYIVNANALNVRSEPNLESSILDVLPNGKFVTIQEEQGEWYKISHNGKAGYVQKAFVSNGSQPLVKGITVQNNTKYTVATPKLNVRSNASTSSALLGSLQNGTQLQVVETVGTWYKIRFGTGYGYVAKHYVVQNQTQSQTQTAQPTSIPAVFKFPTQGRISSTFDMRWEQMHYGIDIAAPGNVSIQAAAAGKVVKSYYSASYGNVVFIAHQINGKLYTTVYAHMKDRTVQAGDQVQAGQLVGHMGNTGHSYGQHLHFELHNGEWNFEKTNAVNPLPYLVRLEHHHHHH | failed

— a protein production outcome set (Wang et al. 2014)
